Reference: patent publication US8492329B2, “Bioactive peptides and methods of using same” (Compugen Ltd., priority 2007, dated 2013)

Key:
Assay type in all cases: cell-based
[1] = molecular target: T1, LGR8 (RXFP2) (Homo sapiens, UniProt Q8WXD0); assay: cAMP accumulation (Hit Hunter cAMP kit) in CHO-K1 cells transiently transfected with LGR8; set-up: expressed in transfected cells; host or cells: CHO-K1 (transient); conditions: 20 uM Forskolin, FIG. 2
Procedure: The ability of Peptides to affect cAMP concentration was examined in CHO-K1 cells transiently transfected with LGR7 (RXFP1) or LGR8 (RXFP2). The experiment measured cAMP concentration in response to the addition of the peptides.
LGR7 (RXFP1) or LGR8 (RXFP2) were transiently transfected into CHO-K1 cells as follows: Cells (12 million) were plated into T75 flasks on the day preceding transfection. Cells were transfected with a GPCR DNA and Gα16 using a lipid technique according to the manufacturer's recommendation. Cells were transfected for 5 hours, then re-plated into 96-well dishes (60,000 cells per well) and grown overnight. Transfected cells were plated into 24 wells of a 96-well plate. Cells were pre-treated with 0.5 mM IBMX (stimulation buffer) for 10 min at 37° C., then stimulated with either a positive control (Relaxin 2) or a candidate peptide (for Gs functional examination), followed by stimulation or a preincubation with 10 μM forskolin (for Gi functional examination). Following a 20 minutes stimulation by incubation with 1 μM of either positive control or the tested peptides, either with or without forskolin, intracellular cAMP was assayed using the Hit Hunter cAMP kit (DiscoveRx Corporation) according to the manufacturer's recommended protocol. Data was converted to nmol of cAMP by running a standard cAMP curve.
Relaxin was used as a positive control. cAMP level was elevated by pre-treatment with forskolin.
The transfected CHO-K1 cells were treated with 10 uM of Forskolin (Applied cell sciences (ACS)) for 10 minutes and then challenged with 1 uM of H2 Relaxin (ACS) (as a positive control), 1 uM of Peptide P59C13V (P59) (SEQ ID NO: 6), and Peptide P74C13V (P74) (SEQ ID NO: 10).
A dose response effect of P59C13V (P59) and P74C13V (P74) on CHO-K1 cells transiently transfected with LGR8 (RXFP2) was further examined (Method as above). CHO-K1 cells transiently transfected with LGR8 (RXFP2) were treated with 20 uM of Forskolin for 10 minutes and then challenged with either INSL3 (as a positive control), P59C13V (SEQ ID NO: 6) or P74C13V (P74) (SEQ ID NO: 10) at increasing concentrations from 1 nM to 10 uM.

[2] = molecular target: T1, LGR8 (RXFP2); assay: pCRE-β-gal reporter assay in Forskolin-treated CHO-K1 cells transiently transfected with LGR8; set-up: expressed in transfected cells; host or cells: CHO-K1 (transient); conditions: 5 uM Forskolin, FIG. 8A-B
Procedure: The ability of P74C13V (P74) (SEQ ID NO: 10) and P59C13V (P59) and P59C13V-Amide (P59-Amide) (SEQ ID NO: 6 and 5 respectively) to activate LGR7 (RXFP1) and LGR8 (RXFP2) was further tested by testing the ability of these peptides to influence cAMP activity induced by 5 μM Forskolin in CHO-K1 cells transiently transfected with LGR7/pCRE-β-gal or LGR8/pCRE-β-gal as compared to H2 relaxin and INSL3 respectively.
LGR8 transfected CHO-K1 cells were treated with 5 uM of Forskolin to stimulate cAMP. The cells were then challenged with increasing doses of INSL3 (as positive control), P74C13V (P74) (SEQ ID NO: 10), P59C13V with (P59-Amide) and without (P59) amide (SEQ ID NO: 5 and 6, respectively) and P59S-Amide (P59-S) (SEQ ID NO: 1). […] The results are presented as a percentage of Forskolin activity at various concentrations of the peptide (logarithmic scale). Each point represents three unrelated repeats for each experiment.

[3] = molecular target: T2, GPR135 (RXFP3) (Homo sapiens, UniProt Q9NSD7); assay: cAMP HTRF assay on Euroscreen RXFP3 recombinant cells; conditions: increasing concentrations, 30 min; FIG. 5
T2 construct: host or cells: CHO-K1 recombinant cell line (Euroscreen)
T2 sequence (Q9NSD7 1-469): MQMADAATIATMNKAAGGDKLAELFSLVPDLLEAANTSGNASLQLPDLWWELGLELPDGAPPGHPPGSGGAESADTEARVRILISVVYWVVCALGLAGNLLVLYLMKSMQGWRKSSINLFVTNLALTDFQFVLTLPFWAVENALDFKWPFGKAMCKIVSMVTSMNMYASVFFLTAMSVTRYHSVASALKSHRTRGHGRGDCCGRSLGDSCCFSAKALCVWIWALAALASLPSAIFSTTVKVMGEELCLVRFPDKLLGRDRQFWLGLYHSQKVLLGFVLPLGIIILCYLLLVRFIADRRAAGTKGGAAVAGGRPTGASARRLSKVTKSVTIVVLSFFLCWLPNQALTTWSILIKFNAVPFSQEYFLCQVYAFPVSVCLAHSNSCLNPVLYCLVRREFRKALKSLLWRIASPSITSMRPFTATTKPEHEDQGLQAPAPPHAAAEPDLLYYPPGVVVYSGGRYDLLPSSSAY
Procedure: The ability of P59C13V (SEQ ID NO: 6) and H3 Relaxin to activate CHO-K1 cells transfected by GPR135 (RXFP3), which is a non-LGR, Relaxin related receptor, was tested. The assay was performed by Euroscreen. For cAMP concentration analysis, Euroscreen cat. ES-656-A-cells (RXFP3, Euroscreen cat. ES-656-A) grown to mid-log phase in culture media without antibiotics were detached with PBS-EDTA, centrifuged and resuspended in assay buffer at a concentration of […]. The test was performed in 96 well plates. For agonist testing, 12 μl of cells (5×10^3 cells/well) were mixed with 12 μl of agonist Either H3-Relaxin or P59C13V (P59) (SEQ ID NO: 6) at increasing concentrations. The plates were then incubated for 30 min at room temperature. After addition of the lysis buffer, cAMP concentrations were estimated, according to the manufacturer specification, with the HTRF kit from Cis-Bio International (cat no 62AM2PEB).
.Relaxin 3 Fit (Eeuroscreen) was used as a positive control. RXFP3 (GPCR135) transfected cells were challenged with increasing concentrations of Relaxin 3 (H3 Relaxin—as a positive control—[…]) or P59C13V (P59) (SEQ ID NO: 6) (1 nM-3 uM).

T1 sequence (Q8WXD0 whole entry): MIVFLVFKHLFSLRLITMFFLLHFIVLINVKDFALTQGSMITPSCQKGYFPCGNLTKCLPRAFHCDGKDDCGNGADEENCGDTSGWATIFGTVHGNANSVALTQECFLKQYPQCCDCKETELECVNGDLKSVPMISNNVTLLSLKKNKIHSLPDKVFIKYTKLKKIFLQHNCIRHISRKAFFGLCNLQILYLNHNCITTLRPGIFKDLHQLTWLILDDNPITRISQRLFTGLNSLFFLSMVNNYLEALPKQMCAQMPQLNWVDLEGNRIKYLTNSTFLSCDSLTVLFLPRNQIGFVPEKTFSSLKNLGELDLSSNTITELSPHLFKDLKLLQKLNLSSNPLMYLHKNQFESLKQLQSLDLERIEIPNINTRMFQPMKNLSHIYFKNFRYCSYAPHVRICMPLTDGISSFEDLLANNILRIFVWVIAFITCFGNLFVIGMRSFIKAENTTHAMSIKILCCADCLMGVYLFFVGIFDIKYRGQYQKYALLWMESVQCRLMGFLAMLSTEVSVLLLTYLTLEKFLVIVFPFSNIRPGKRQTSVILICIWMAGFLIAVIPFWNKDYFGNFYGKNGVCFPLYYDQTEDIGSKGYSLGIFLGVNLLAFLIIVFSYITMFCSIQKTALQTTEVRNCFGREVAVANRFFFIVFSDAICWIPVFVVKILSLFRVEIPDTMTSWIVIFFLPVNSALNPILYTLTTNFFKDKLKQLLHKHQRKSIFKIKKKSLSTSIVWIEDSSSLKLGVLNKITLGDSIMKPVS

Substance | change in cAMP, dose response, higher concentrations ([1]; concentrations higher than 100 nM (up to 10 uM)) | change in cAMP, dose response, lower concentrations ([1]; concentrations lower than 100 nM) | CRE activation pattern relative to Forskolin [2] | cAMP activation (Gs) of RXFP3 [3]
INSL3: Leydig insulin-like 3 peptide, high affinity ligand of LGR8, positive control (chain 1 AAATNPARYCCLSGCTQQDLLTLCPY; chain 2 PTPEMREKLCGHHFVRALVRVCGGPRWSTEA) [reference compound] | sharp decrease (Gi effect) | slight dose dependent increase | increased activation at higher concentrations | 
H3 Relaxin: Relaxin 3 (Euroscreen), ligand of RXFP3, positive control [reference compound] |  |  |  | strong cAMP stimulation
